Assay results published in PMC4176187.

Target: 40S ribosomal subunits purified from rabbit reticulocyte lysate (rabbit) (UniProt G1U0Q2)
Assay: protein transfer assay

percent of the protein transferred from scAlu RNA to 40S [%] | Substance
16 | human recombinant SRP9/14A5 (basic pentapeptide K96-K100 of SRP14 mutated) (from UniProt P49458 1-86; P37108 1-136) (complex)
41 | human recombinant SRP9/14 protein heterodimer, wild type (from UniProt P49458 1-86; P37108 1-136) (complex)
